Reference: article PMC7498065, “Isolation of antigen-specific, disulphide-rich knob domain peptides from bovine antibodies” (PLoS Biology, 2020)
Like-named read-outs stand apart in the source and are kept apart here.

B1: PGT121-K136: human Fab PGT121 with the K136 knob domain inserted into CDRH3, flanked by TEV protease sites (antibody)
VH: QMQLQESGPGLVKPSETLSLTCSVSGASISDSYWSWIRRSPGKGLEWIGYVHKSGDTNYSPSLKSRVNLSLDTSKNQVSLSLVAATAADSGKYYCARTLHGRRIYGSENLYFQGTCPDNYREVDGCDPYDCCLTTWCTNSYCTRYIENLYFQGSEWFTYFYMDVWGNGTQVTVSS
VL: QSVLTQPPDISVAPGETARISCGEKSLGSRAVQWYQHRAGQAPSLIIYNNQDRPSGIPERFSGSPDSPFGTTATLTITSVEAGDEADYYCHIWDSRVPTKWVFGGGTTLTVL
B2: PGT121-K149: human Fab PGT121 with the K149 knob domain inserted into CDRH3, flanked by TEV protease sites (antibody)
VH: QMQLQESGPGLVKPSETLSLTCSVSGASISDSYWSWIRRSPGKGLEWIGYVHKSGDTNYSPSLKSRVNLSLDTSKNQVSLSLVAATAADSGKYYCARTLHGRRIYGSENLYFQGSCPDGFSYRSWDDFCCPMVGRCLAPRNGSENLYFQGSEWFTYFYMDVWGNGTQVTVSS
VL: QSVLTQPPDISVAPGETARISCGEKSLGSRAVQWYQHRAGQAPSLIIYNNQDRPSGIPERFSGSPDSPFGTTATLTITSVEAGDEADYYCHIWDSRVPTKWVFGGGTTLTVL

What was measured:
[1] = biological target: C5 (Homo sapiens, UniProt P01031); assay: Steady state FRET binding assay, AF647-labelled PGT121 knob fusion proteins binding to C5-Tb (KD app); conditions: C5-Tb 1 nM
Sequence of C5 (P01031 19-673 limits assumed): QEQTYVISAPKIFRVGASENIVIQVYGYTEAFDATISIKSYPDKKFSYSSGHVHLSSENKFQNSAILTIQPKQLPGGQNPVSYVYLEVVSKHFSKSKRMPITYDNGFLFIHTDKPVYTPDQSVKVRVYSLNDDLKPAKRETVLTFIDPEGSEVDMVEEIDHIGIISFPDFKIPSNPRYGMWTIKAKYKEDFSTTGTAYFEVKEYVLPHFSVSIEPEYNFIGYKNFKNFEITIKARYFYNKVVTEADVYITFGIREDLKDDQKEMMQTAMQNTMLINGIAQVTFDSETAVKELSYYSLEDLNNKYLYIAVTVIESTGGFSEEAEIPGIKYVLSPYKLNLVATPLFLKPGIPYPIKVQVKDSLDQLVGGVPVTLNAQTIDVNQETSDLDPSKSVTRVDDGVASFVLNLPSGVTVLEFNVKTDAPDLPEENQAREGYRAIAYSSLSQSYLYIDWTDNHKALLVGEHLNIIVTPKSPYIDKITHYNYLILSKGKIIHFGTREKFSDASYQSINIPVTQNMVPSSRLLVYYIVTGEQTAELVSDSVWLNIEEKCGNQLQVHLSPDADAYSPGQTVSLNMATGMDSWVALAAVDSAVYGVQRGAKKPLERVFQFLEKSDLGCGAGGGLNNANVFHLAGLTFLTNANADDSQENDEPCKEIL
Sequence of C5 (P01031 678-1676 limits assumed): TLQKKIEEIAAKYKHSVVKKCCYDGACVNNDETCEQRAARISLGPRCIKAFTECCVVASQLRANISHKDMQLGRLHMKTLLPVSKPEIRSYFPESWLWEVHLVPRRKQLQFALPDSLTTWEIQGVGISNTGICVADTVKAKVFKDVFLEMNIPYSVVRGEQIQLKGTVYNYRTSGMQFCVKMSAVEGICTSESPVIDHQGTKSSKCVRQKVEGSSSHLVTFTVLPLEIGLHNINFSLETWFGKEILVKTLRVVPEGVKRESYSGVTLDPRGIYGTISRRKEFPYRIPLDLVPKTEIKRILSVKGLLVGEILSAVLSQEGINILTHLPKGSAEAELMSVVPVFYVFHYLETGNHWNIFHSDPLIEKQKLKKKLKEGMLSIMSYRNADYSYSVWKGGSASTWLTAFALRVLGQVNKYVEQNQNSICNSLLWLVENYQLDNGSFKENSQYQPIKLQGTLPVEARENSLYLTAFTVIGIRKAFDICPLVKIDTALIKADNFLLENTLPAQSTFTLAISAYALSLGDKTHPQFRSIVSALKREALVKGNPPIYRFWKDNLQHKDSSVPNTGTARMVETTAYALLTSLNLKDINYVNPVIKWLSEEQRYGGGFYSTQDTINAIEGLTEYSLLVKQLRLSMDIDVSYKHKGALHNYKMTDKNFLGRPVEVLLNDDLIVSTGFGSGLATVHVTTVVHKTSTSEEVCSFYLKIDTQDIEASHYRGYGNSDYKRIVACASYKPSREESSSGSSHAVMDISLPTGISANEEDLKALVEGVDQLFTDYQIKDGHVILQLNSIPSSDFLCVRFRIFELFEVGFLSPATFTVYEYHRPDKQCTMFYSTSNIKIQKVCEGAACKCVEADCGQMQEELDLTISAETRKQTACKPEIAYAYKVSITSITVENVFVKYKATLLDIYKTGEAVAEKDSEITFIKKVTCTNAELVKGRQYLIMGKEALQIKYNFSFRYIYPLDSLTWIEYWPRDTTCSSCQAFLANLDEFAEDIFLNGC

[2] = biological target: Complement component C5 (Homo sapiens, UniProt P01031); assay: Biacore SPR single-cycle kinetics of PGT121 Fab-knob domain fusion proteins binding to C5; conditions: for Mean kon: C5 amine-coupled on CM5 chip, analyte 1.37 nM-1 µM in HBS-EP; for Mean Stoichiometric ratio at 1 µM: SPR, analyte 1 µM
Sequence of Complement component C5 (P01031 19-673 limits assumed): as the sequence (P01031 19-673 limits assumed) above
Sequence of Complement component C5 (P01031 678-1676 limits assumed): as the sequence (P01031 678-1676 limits assumed) above
Protocol: For PGT121 fusion proteins, flow cells were activated using a minimal immobilisation protocol: EDC/NHS was mixed at 1:2 ratio (flow rate, 10 μL/min; contact time, 30 s). C5, at 1 μg/mL in pH 4.5 sodium-acetate buffer, was immobilized on flow cell 2 only (flow rate, 10 μL/min; contact time, 420 s). Finally, ethanolamine was applied to both flow cells (flow rate, 10 μL/min; contact time, 420 s).
For knob domain peptides, flow cells were activated using a standard immobilisation protocol: EDC/NHS was mixed at 1:1 ratio (flow rate, 10 μL/min; contact time, 30 s). C5, at 1 μg/mL in pH 4.5 sodium-acetate buffer, was immobilized on flow cell 2 only (flow rate, 10 μL/min; contact time, 420 s). Finally, ethanolamine was applied to both flow cells (flow rate, 10 μL/min; contact time, 420 s). […] For the PGT121-K149 fusion protein and K149 knob domain, the same immobilisation protocols were used but with a 750 ng/mL solution of C5, instead of 1 μg/mL.
One-micromolar stock solutions of the analytes (PGT121 knob domain fusion proteins and free knob domain peptides) were prepared in HBS-EP buffer. A series of six 3-fold dilutions of each stock solution was prepared in the same buffer. The result was 7 solutions for each analyte, at concentrations ranging from 1 μM down to 1.37 nM. A high flow rate of 40 μL/min was used, with a contact time of 230 s and a dissociation time of 1,800 s for knob domain peptides and 10,000 s for PGT121 knob domain fusion proteins. For the PGT121-K149 fusion protein and K149 knob domain, the flow rate was further increased to 100 μL/min. Binding to the reference surface was subtracted, and the data were fitted to a single-site binding model using Biacore evaluation software. Data were inspected for evidence of mass transport limitation using the flow-rate–independent component of the mass transfer constant (tc).

[3] = 2 hour incubation, experiment n2, read-out: KD app
[4] = 2 hour incubation, experiment n3, read-out: KD app
[5] = 2 hour incubation, geomean of n=3, read-out: Geomean KD app
[6] = 24 hour incubation, experiment n2, read-out: KD app
[7] = 24 hour incubation, experiment n3, read-out: KD app
[8] = 24 hour incubation, geomean of n=3, read-out: Geomean KD app

Row | Molecule | Kd [1, 3] | Kd [1, 4] | Kd [1, 5] | Kd [1, 6] | Kd [1, 7] | Kd [1, 8] | Mean kon ([2]; 1:1 model, mean of n=3) | Mean Stoichiometric ratio at 1 µM ([2]; mean of n=3) | Rmax ([2]; occasion n=1) | Stoichiometric ratio at 1 µM ([2]; occasion n=1) | kon ([2]; occasion n=1) | Kd ([2]; occasion n=1, read-out: KD) | Rmax ([2]; occasion n=2) | Stoichiometric ratio at 1 µM ([2]; occasion n=2) | kon ([2]; occasion n=2) | Kd ([2]; occasion n=2, read-out: KD) | Rmax ([2]; occasion n=3) | Stoichiometric ratio at 1 µM ([2]; occasion n=3) | kon ([2]; occasion n=3) | Kd ([2]; occasion n=3, read-out: KD) | other results
1 | B1 | 46.3 nM | 115 nM | 73 nM | 23.4 nM | 58.1 nM | 39.8 nM | 4760 M⁻¹ s⁻¹ | 0.8 | 38.9 RU | 0.82 | 5480 M⁻¹ s⁻¹ | < 1.82 nM | 38.4 RU | 0.8 | 3520 M⁻¹ s⁻¹ | < 2.84 nM | 40.4 RU | 0.9 | 5280 M⁻¹ s⁻¹ | < 1.89 nM | Kd ([2]; SPR single-cycle kinetics, 1:1 model, mean of n=3, read-out: Mean KD): < 2.19 nM; off rate (koff) ([2]; exceeded the limit for koff determination by Biacore): < 1e-05 s⁻¹
2 | B2 | 57.6 nM | 30.1 nM | 39.3 nM | 90.6 nM | 24.9 nM | 65.9 nM | 3750 M⁻¹ s⁻¹ | 0.5 | 13.00 RU | 0.5 | 5270 M⁻¹ s⁻¹ | 283 nM | 10.00 RU | 0.5 | 3840 M⁻¹ s⁻¹ | 425 nM | 10.00 RU | 0.4 | 2150 M⁻¹ s⁻¹ | 842 nM | Kd ([1]; 2 hour incubation, experiment n1, read-out: KD app): 34.9 nM; Kd ([1]; 24 hour incubation, experiment n1, read-out: KD app): 127 nM; Mean koff ([2]; SPR single-cycle kinetics, 1:1 model, mean of n=3, koff capped at 1.00E-05 s^-1): 0.00164 s⁻¹; koff ([2]; occasion n=1): 0.00149 s⁻¹; koff ([2]; occasion n=2): 0.00162 s⁻¹; koff ([2]; occasion n=3): 0.00181 s⁻¹
